Positions of bridges follow the written chain, without caps; N, C: chain ends. Non-standard residues stand in square brackets, D forms with d. No end group written: not given here. pGlu = O=C1CC[C@@H](C(=O)O)N1; Nle = CCCC[C@H](N)C(=O)O; I‑37 = not defined here

The target of experiment [1] is RXFP1.
The target of experiment [2] is RXFP1. This is another data set of the same source.
Experiment [3] deals with hFGF23-variant of Example 28B.
The target of another experiment is APJ (human, UniProt P35414). Put plainly: cell-based or functional assay.

Sequence of MC3R (P41968 whole entry): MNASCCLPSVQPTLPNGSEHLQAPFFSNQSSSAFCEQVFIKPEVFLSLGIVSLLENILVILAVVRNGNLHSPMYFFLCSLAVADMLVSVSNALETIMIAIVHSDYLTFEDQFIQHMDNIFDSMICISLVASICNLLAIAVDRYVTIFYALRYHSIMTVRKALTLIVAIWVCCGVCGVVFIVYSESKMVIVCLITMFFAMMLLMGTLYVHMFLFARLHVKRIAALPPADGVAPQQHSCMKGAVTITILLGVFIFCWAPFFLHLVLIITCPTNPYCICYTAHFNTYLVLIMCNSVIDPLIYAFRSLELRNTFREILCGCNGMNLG
Sequence of oxytocin receptor (P30559 whole entry): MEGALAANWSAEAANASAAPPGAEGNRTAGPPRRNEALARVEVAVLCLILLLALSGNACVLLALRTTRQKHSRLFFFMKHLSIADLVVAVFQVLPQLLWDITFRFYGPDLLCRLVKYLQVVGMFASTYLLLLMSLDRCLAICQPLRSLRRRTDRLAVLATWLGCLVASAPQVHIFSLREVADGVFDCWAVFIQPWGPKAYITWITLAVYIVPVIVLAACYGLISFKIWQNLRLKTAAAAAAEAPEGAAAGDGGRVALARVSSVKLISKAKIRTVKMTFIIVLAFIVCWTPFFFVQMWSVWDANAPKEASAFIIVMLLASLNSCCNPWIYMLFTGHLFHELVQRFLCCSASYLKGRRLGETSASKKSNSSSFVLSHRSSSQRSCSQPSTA

With Serelaxin (ligand), the cAMP (HTRF), agonist mode, EC50 in the experiment with RXFP1 [1] amounted to 1.12 nM. In the experiment with RXFP1 [2], this molecule yielded a cAMP (HTRF), Ec50 (nM), 0% Plasma of 8 nM; a cAMP (HTRF), Ec50 (nM), 4% Plasma of 0.3 nM; a cAMP (HTRF), Ec50 (nM), 10% Plasma of 0.4 nM; a cAMP (HTRF), Ec50 (nM), 600 uL BSA of 0.7 nM. Take Oxytocin (peptide): in the experiment with oxytocin receptor, the Emax (the concentration where the reference agonist elicited a maximal response), calcium flux came to 1.25 µM.

B1: Example 27A: Mono fatty acid conjugate of AgRP (AgRP+1FA) (ligand)
chain: {I‑37}-SSRRCVRLHESCLGQQVPCCDPCATCYCRFFNAFCYCRKLGTAMNPCSRT
modifications: disulfide 12-26, 19-37, 5-20, 23-47, 28-35; reading uncertain
For the molecule B1, in the experiment with MC3R, the MC3R EC50 [nM] (cAMP assay, antagonist protocol) amounted to 7 nM. The same molecule registered an MC4R EC50 [nM] (HTRF cAMP assay) with MC4R of 18 nM.

B2: Example 27B: Di-fatty acid conjugate of AgRP(83-132) (AgRP+2 FA) (ligand)
chain: {I‑37}-SSRRCVRLHESCLGQQVPCCDPCATCYCRFFNAFCYCRK(I‑37)LGTAMNPCSRT
modifications: disulfide 12-26, 19-37, 5-20, 23-47, 28-35; not fully specified; printed as Ser-Ser-Arg-Arg-Cys-Val-Arg-Leu-H is-Glu-Ser-Cys-Leu-Gly-Gln-Gln-Val-Pro-Cys-Cys-Asp-Pro-Cys-Ala-Thr-Cys-Tyr-Cys-Arg-Phe-Phe-Asn-Ala-Phe-Cys-Tyr-Cys-Arg-Lys-Leu-Gly-Thr-Ala-Met-Asn-Pro-Cys-Ser-Arg-Thr; reading uncertain
For the molecule B2, the MC3R EC50 [nM] (cAMP assay, antagonist protocol) with MC3R was found to be 65 nM. Moreover, the MC4R EC50 [nM] (HTRF cAMP assay) with MC4R is 167 nM.

B3: transglutaminase enzyme (Ajinomoto) (enzyme)
chain: DSDDRVTPPAEPLDRMPDPYRPSYGRAETVVNNYIRKWQQVYSHRDGRKQQMTEEQREWLSYGCVGVTWVNSGQYPTNRLAFASFDEDRFKNELKNGRPRSGETRAEFEGRVAKESFDEEKGFQRAREVASVMNRALENAHDESAYLDNLKKELANGNDALRNEDARSPFYSALRNTPSFKERNGGNHDPSRMKAVIYSKHFWSGQDRSSSADKRKYGDPDAFRPAPGTGLVDMSRDRNIPRSPTSPGEGFVNFDYGWFGAQTEADADKTVWTHGNHYHAPNGSLGAMHVYESKFRNWSEGYSDFDRGAYVITFIPKSWNTAPDKVKQGWP
For the molecule B3, the TGase labelling of hFGF23-variant with intermediate 25d, LCMS in experiment [3] was 90%.

B4: AgRP(83-132) (ligand)
chain: SSRRCVRLHESCLGQQVPCCDPCATCYCRFFNAFCYCRKLGTAMNPCSRT
modifications: disulfide 12-26, 19-37, 5-20, 23-47, 28-35
With B4, the MC3R EC50 [nM] (cAMP assay, antagonist protocol) in the experiment with MC3R is 12 nM.

B5: pE-R-P-R-L-C*-H-K-G-P-Nle-C*-F-OH (Disulfide C6-C12) (peptide)
peptide: [pGlu]RPRLCHKGP[Nle]CF-OH
modifications: disulfide 6-12
SMILES: CCCC[C@@H]1NC(=O)[C@@H]2CCCN2C(=O)CNC(=O)[C@H](CCCCN)NC(=O)[C@H](Cc2c[nH]cn2)NC(=O)[C@@H](NC(=O)[C@H](CC(C)C)NC(=O)[C@H](CCCNC(=N)N)NC(=O)[C@@H]2CCCN2C(=O)[C@H](CCCNC(=N)N)NC(=O)[C@@H]2CCC(=O)N2)CSSC[C@@H](C(=O)N[C@@H](Cc2ccccc2)C(=O)O)NC1=O
Take B5: the “hAPJ Ca2+ Flux EC50” value with APJ was determined as 1.04 nM.

B6: pE-R-P-C*-L-S-C*-K-G-P-(D-Nle)-NH(Phenethyl) (disulfide C4-C7) (peptide)
peptide: ERPCLSCKGPL
modifications: pE (pyroglutamate) at the N-terminus; D-Nle at position 11; C-terminal NH(Phenethyl); disulfide C4-C7
On to B6, for which the “hAPJ Ca2+ Flux EC50” value with APJ stood at 3 nM.

Source of the values: patent US10786576B2, “Fatty acids and their use in conjugation to biomolecules” (Novartis AG, dated 2020).
